Results as given in patent CN116478288A.

Legend:
[1] = target: 生物素化人源CD47蛋白 (购自Acro Biosystem) (human) (UniProt Q08722); assay: phage ELISA; biotinylated human CD47 on streptavidin plate; ratio of experiment to control
[2] = target: 人源CD47 (on cells: hCD47-overexpressing CHO-K1; Raji) (human) (UniProt Q08722); assay: flow cytometry, phage supernatant; MFI on human CD47 CHO-K1 over MFI on wild-type CHO-K1
[3] = target: 生物素化人源CD47蛋白 (购自Acro Biosystem) (human) (UniProt Q08722); assay: phage ELISA; biotinylated human CD47 on streptavidin plate, phage supernatant, HRP anti-M13
[4] = target: 食蟹猴CD47 (on overexpressing CHO-K1 cells) (cynomolgus monkey); assay: flow cytometry, phage supernatant; MFI on cynomolgus CD47 CHO-K1 over MFI on wild-type CHO-K1
[5] = target: 食蟹猴CD47 (on overexpressing CHO-K1 cells) (cynomolgus monkey); assay: flow cytometry, phage supernatant on CHO-K1 overexpressing cynomolgus CD47, anti-M13 then fluorescent secondary
[6] = target: 人源CD47 (on cells: hCD47-overexpressing CHO-K1; Raji) (human) (UniProt Q08722); assay: flow cytometry, phage supernatant on CHO-K1 overexpressing human CD47, anti-M13 then fluorescent secondary
[7] = target: 人源CD47 (on cells: hCD47-overexpressing CHO-K1; Raji) (human) (UniProt Q08722); assay: flow cytometry, purified antibody 10 ug/ml on CHO-K1 overexpressing human CD47
[8] = target: 食蟹猴CD47 (on overexpressing CHO-K1 cells) (cynomolgus monkey); assay: flow cytometry, purified antibody 10 ug/ml on CHO-K1 overexpressing cynomolgus CD47
[9] = target: 人源CD47 (on cells: hCD47-overexpressing CHO-K1; Raji) (human) (UniProt Q08722); assay: flow cytometry on Raji cells (endogenous human CD47); Blank 58.3

B1: 单克隆抗体ID 1 (phage粗培液, phage-displayed) (antibody, V domains shown)
VH: QVQLQQPGAELVKPGAPVKLSCKASGYTFTSYWMNWVKQRPGRGLEWIGRIDSSDSETHYNQKFKDKATLTVDKSSSTAYIQLSSLTSEDSAVYYCARQGEGLRRSWFPYWGQGTLVIVSA
VL: DIVLTQSPASLAVSLGQRATISCRASKSVSTSGYSYIHWYQQKPGQPPKLLIYVASNLQSGVPARFSGSGSGTDFTLNIHPVEEEDAATYYCQHIRELPWTFGGGTKLEIK
Q: What does the source list for B1?
A: 实验/对照 (OD450 ratio) [1]: 50.6; h-CHOK1/CHOK1 (MFI ratio to wild-type CHO-K1) [2]: 13.4; OD450 (实验) [3]: 2.84 OD450; c-CHOK1/CHOK1 (MFI ratio to wild-type CHO-K1) [4]: 10.7; MFI [5]: 14600 MFI; MFI [6]: 18300 MFI

B2: 人源化抗体ID 4 (antibody, human IgG4 S228P, kappa, V domains shown)
VH: QVQLVQSGAEVKKPGASVKVSCKASGYTFTSYWMNWVRQAPGQGLEWMGRIDSSDSETHYNQKFKDRVTMTRDTSTSTVYMELSSLRSEDTAVYYCARQGEGLRRSWFPYWGQGTLVTVSS
VL: DIVMTQSPDSLAVSLGERATINCRASKSVSTSGYSYIHWYQQKPGQPPKLLIYVASNLQSGVPDRFSGSGSGTDFTLTISSLQAEDVAVYYCQHIRELPWTFGQGTKVEIKR
Q: How did the MFI [7] turn out when B2 was run?
A: Its MFI is 2040 MFI.

Q: And the MFI [8]?
A: The MFI was 786 MFI.

Q: And the MFI [9]?
A: Its MFI is 14200 MFI.
